Data as given in PMC11543927, “Subtleties in Clathrin heavy chain binding boxes provide selectivity among adaptor proteins of budding yeast” (Nature Communications, 2024).

B1: Clathrin heavy chain fused to mScarlet (Chc-mScarlet), wild type [Saccharomyces cerevisiae] / Ent1 endogenously tagged with mNeonGreen (Ent1-mNeonGreen) [Saccharomyces cerevisiae (endogenous in MK100)] (parent complex)
chain 1: MSDLPIEFTELVDLMSLGISPQFLDFRSTTFESDHFVTVRETKDGTNSVAIVDLAKGNEVTRKNMGGDSAIMHPSQMVISVRANGTIVQIFNLETKSKLKSFTLDEPVIFWRWLSETTLGFVTARSILTSNVFDGNVNAKPQLLTLRHANLNNTQIINFVANKNLDWFAVVGILQENGRIAGRIQLFSKQRNISQAIDGHVAIFTNILLEGNGSTPVQVFVTGNRNATTGAGELRIIEIDHDASLPSQYQKETTDIFFPPDATNDFPIAVQVSEKYGIIYLLTKYGFIHLYELETGTNLFVNRITAESVFTAAPYNHENGIACINKKGQVLAVEISTSQIVPYILNKLSNVALALIVATRGGLPGADDLFQKQFESLLLQNDYQNAAKVAASSTSLRNQNTINRLKNIQAPPGAISPILLYFSTLLDKGKLNKEETIELARPVLQQDRKQLFEKWLKEDKLECSEELGDIVKPFDTTLALACYLRAGAHAKVISCLAELQQFEKIIPYCQKVGYQPNFLVLISSLIRSSPDRASEFAVSLLQNPETASQIDIEKIADLFFSQNHIQQGTSLLLDALKGDTPDQGHLQTRVLEVNLLHAPQVADAILGNNIFSHYDKPTIASLSEKAGLYQRALENYTDIKDIKRCVVHTNALPIDWLVGYFGKLNVEQSLACLKALMDNNIQANIQTVVQVATKFSDLIGPSTLIKLFEDYNATEGLYYYLASLVNLTEDKDVVYKYIEAAAKMKQYREIERIVKDNNVYDPERVKNFLKDANLEDQLPLVIVCDRFDFVHEMILYLYKSQNLKFIETYVQQVNPSKTAQVVGALLDMDCDEAFIQSLLQSVLGQVPINELTTEVEKRNRLKILLPFLEQSLSQGIQDQAVYNALAKIYIDSNNSPEKFLKENDQYDTLDVGHYCEKRDPYLAYIAYEKGQNDDDLIRITNENSMYKYQARYLLERSDLDLWNKVLNQENIHRRQLIDSVISVGIPELTDPEPVSLTVQAFMTNGLKLELIELLEKIILEPSPFNENVALQGLLLLSAIKYEPTKVSSYIEKLDNYDADEIAPLCIEHDLKEEAFEIYDKHEMYGKALKVLIEDIMSLDRAASYADKINTPELWSQIGTAQLDGLRIPDAIESYIKAEDPSNYENVIDIAEQAGKYEELIPFLLMARKTLKEPKIDGALILAYAELNKIHEIENLLAGSNVANLDHVGDKLFENKEYKAARLCYSAVSNYSKLASTLVYLGDYQAAVDTARKASNIKVWKLVNDACIEKKEFKLAQICGLNLIVHAEELDELVERYESNGYFEELISLFEAGLGLERAHMGMFTELAILYSKYEPDKTFEHLKLFWSRINIPKVIRAVEQAHLWSELVFLYAHYDEWDNAALTLIEKSTKDLDHAYFKEVVVKVSNLEIYYKAINFYVKFHPSLLVDLLTSLTPRLDIPRTVKIFSKSDNLPLIKPFLINVLPKNNSVVNQAYHDLMIEEEDYKALQDAVDSYDKFDQLGLASRLESHKLIFFKKIGALLYRRNKKWAKSLSILKEEKLWKDAIETAAISQDPKVVEALLTYFVETGNREGFVALLYAAYNLVRIEFVLEISWMNSLEDYIKPFEISIKKEQNDSIKKITEELAKKSGSNEEHKDGQPLMLMNSAMNVQPTGF
chain 2: MSKQFVRSAKNLVKGYSSTQVLVRNATSNDNHQVSKDSLIELAEKSYDSADFFEIMDMLDKRLNDKGKYWRHIAKALTVIDYLIRFGSENCVLWCRENLYIIKTLKEFRHEDDEGIDQGQIVRVKAKELTALLSDDERLNEERNMNIKGRNRKGRRRRGTGRSDENDDDLQRAISASRLTAEEDERRRKQDEDYETALQLSKEEEELKRLQDLQRMQQQQGQQQLQQPMYYDIFGNPITPEEYAQFQLQQQQQQQQQQLQQQPMYYDVFGNPITPEELAQFQQQQQLQEQQYLASMQQQQQAMSNNPFAKSEQSSSSPKRNQLVAASSPQQLQQQKQQEPLIQNRTGNQSMTDKYSKLNELLATGTGIDTFGNVGEARIPAQHTKTGTFINSQGTGYRQVSDDPNHNPFLNSQYTGLPSTSVVPTQTGYGFGNQSQQQSQNNGSNNRGYTLIDL
B2: Clathrin heavy chain fused to mScarlet (Chc-mScarlet), wild type [Saccharomyces cerevisiae] / Ent2 endogenously tagged with mNeonGreen (Ent2-mNeonGreen) [Saccharomyces cerevisiae (endogenous in MK100)] (parent complex)
chain 1: B1 chain 1
chain 2: MSKQFVRSAKNMMKGYSSTQVLVRDATANDSRTPSIDTLDDLAQRSYDSVDFFEIMDMLDKRLNDKGKYWRHVAKSLTVLDYLVRFGSENCVLWCRENFYVIKTLREFRHENESGFDEGQIIRVKAKELVSLLNDEERLREERSMNTRNRRANRAARPRPRRQRTRSNPHDSSPSYQDDLEKALEESRITAQEDEQRRRELAQYDDEDPDFQAALQLSKEEEELKQLQELQRLQKQQQSLSQFQAPLQQQQPQQQPAYYDIFGNPISQDEYLQYQYQQDQEQAMAQQRWLDQQQEQQQLAEQQYFQQQQQAAAAASALQQQQTAANMQQQQQQPADFQQPLPTGSNNPFSMDNLERQKQEQQHAQLQRQQEEARQQQEQLKLQQLQRQQQEEAQLHQKRQEEAQLQQQQAQLLQQQAQFQQQQPLKQTRTGNQSISDKYSDLNTLLATGTGIDTFGNTGEARIPAQHTKTGTFINSQGTGYKQVTNEPKNNPFLSNQYTGLPSTNIVPTQTGYGFGNQPQSPPTNSPQQNPTGISYSQPQQQQQPQQQPQYMQNFQQQQPQYAQNFQQQPQYTQNYQQQPQYIQPHQQQQQQQQQQQQQQGYTPDQGVSLIDL

Variants of: B1
Experiment: FRET acceptor photobleaching (in vivo); room temperature (21 °C); trimmed mean; n = 102; parent: 7.87

Row | response [%] | Variant
1 | 8.6 | chain 1 Q195A, chain 1 I197T, chain 1 K251E

Variants of: B1
Experiment: FRET acceptor photobleaching (in vivo); room temperature (21 °C); trimmed mean; n = 98; parent: 7.87

Row | response [%] | Variant
2 | 8.23 | chain 1 F26A, chain 1 Q155A

Variants of: B1
Experiment: FRET acceptor photobleaching (in vivo); room temperature (21 °C); trimmed mean; n = 103; parent: 7.87

Row | response [%] | Variant
3 | 8.19 | chain 1 F26A, chain 1 Q155A, chain 1 Q195A, chain 1 I197T, chain 1 K251E

Variants of: B2
Experiment: FRET acceptor photobleaching (in vivo); room temperature (21 °C); trimmed mean; n = 127; parent: 9.02

Row | response [%] | Variant
4 | 7.03 | chain 1 F26A, chain 1 K63E, chain 1 I87D, chain 1 Q89A, chain 1 K98E, chain 1 Q155A, chain 1 Q195A, chain 1 I197T, chain 1 K251E

Variants of: B2
Experiment: FRET acceptor photobleaching (in vivo); room temperature (21 °C); trimmed mean; n = 126; parent: 9.02

Row | response [%] | Variant
5 | 10.1 | chain 1 F26A, chain 1 Q155A

Variants of: B2
Experiment: FRET acceptor photobleaching (in vivo); room temperature (21 °C); trimmed mean; n = 117; parent: 9.02

Row | response [%] | Variant
6 | 7.18 | chain 1 F26A, chain 1 K63E, chain 1 I87D, chain 1 Q89A, chain 1 K98E, chain 1 Q155A

Variants of: B2
Experiment: FRET acceptor photobleaching (in vivo); room temperature (21 °C); trimmed mean; n = 98; parent: 9.02

Row | response [%] | Variant
7 | 9.99 | chain 1 K63E, chain 1 I87D, chain 1 Q89A, chain 1 K98E
